This note sets out measurements from article PMC8041799, “Reovirus directly engages integrin to recruit clathrin for entry into host cells” (Nature Communications, 2021).

In assay [1] the target is α2β1 integrin (UniProt P17301). Kind of assay: single-virus force spectroscopy (FD-curve-based AFM); virus particle on the AFM tip through a PEG27 linker; α2β1 integrin coupled by NHS/EDC to a gold surface; virion-storage buffer (150 mM NaCl, 15 mM MgCl2, 10 mM Tris pH 7.4) with 2 mM Mn2+; ~25 °C; koff from a Bell-Evans fit, kon from BF against contact time, KD = koff/kon.

Assay [2] addresses α2β1 integrin (UniProt P17301). Kind of assay: BLI; as a11, virion-storage buffer with 2 mM Ca2+. On the technique in general: Biolayer interferometry detects binding as a change in optical thickness at a sensor tip.
Assay [3] has as its target α2β1 integrin (UniProt P17301). Kind of assay: BLI; as a11, virion-storage buffer (15 mM Mg2+) without further cation.
Assay [4] addresses α2β1 integrin (UniProt P17301). Kind of assay: single-virus force spectroscopy (FD-curve-based AFM); as a1 (Mn2+), with 1 mM Neu5Ac.
In assay [5] the target is α2β1 integrin (UniProt P17301). Kind of assay: single-virus force spectroscopy (FD-curve-based AFM); as a1 but with 2 mM Ca2+ instead of Mn2+.
The target of assay [6] is α2β1 integrin (UniProt P17301). Briefly: single-virus force spectroscopy (FD-curve-based AFM); as a1 but 15 mM Mg2+ of the virion-storage buffer as only divalent cation.
Assay [7] deals with β1 integrin on living Lec2 cells (Chinese hamster (endogenous in Lec2)). Briefly: single-virus force spectroscopy (FD-curve-based AFM); virion on the AFM tip; living Lec2 cells, PeakForce QNM mode; 0.5 mM Mg2+.
Assay [8] shares this target. Briefly: single-virus force spectroscopy (FD-curve-based AFM); virion on the AFM tip; living Lec2 cells, PeakForce QNM mode, cell culture conditions; 0.5 mM Mn2+.
Assay [9] shares this target. Kind of assay: single-virus force spectroscopy (FD-curve-based AFM); virion on the AFM tip; living Lec2 cells, PeakForce QNM mode; with Ca2+ (concentration on cells not stated).
In assay [10] the target is α2β1 integrin (UniProt P17301). Briefly: BLI; α2β1 integrin immobilised on amine-reactive (AR2G) biosensors; T3SA+ virus ~10^13 particles/mL (16 nM in the fit) in virion-storage buffer with 2 mM Mn2+; room temperature; BLItz.
In assay [11] the target is T1, α2β1 integrin (UniProt P17301 30-1132; P05556 21-728).
T1 construct: integrin α2 subunit; integrin β1 subunit; No catalogue number printed; The vendor's recombinant α2β1 is, as far as I recall, the human extracellular domains joined by acidic and basic tails; Coupled through amines (NHS/EDC) to gold surfaces or AR2G biosensors; also called α2β1 integrins; β1 integrins; source: bought: R&D Systems
Kind of assay: single-virus force spectroscopy (FD-curve-based AFM); virus particle on the AFM tip through a PEG27 linker; α2β1 integrin coupled by NHS/EDC to a gold surface; virion-storage buffer (150 mM NaCl, 15 mM MgCl2, 10 mM Tris pH 7.4) with 2 mM Mn2+; ~25 °C; koff from a Bell-Evans fit, kon from BF against contact time, KD = koff/kon. As to conditions: both partners purified.

T1 sequence (P17301 30-1132, chain 1 of 2): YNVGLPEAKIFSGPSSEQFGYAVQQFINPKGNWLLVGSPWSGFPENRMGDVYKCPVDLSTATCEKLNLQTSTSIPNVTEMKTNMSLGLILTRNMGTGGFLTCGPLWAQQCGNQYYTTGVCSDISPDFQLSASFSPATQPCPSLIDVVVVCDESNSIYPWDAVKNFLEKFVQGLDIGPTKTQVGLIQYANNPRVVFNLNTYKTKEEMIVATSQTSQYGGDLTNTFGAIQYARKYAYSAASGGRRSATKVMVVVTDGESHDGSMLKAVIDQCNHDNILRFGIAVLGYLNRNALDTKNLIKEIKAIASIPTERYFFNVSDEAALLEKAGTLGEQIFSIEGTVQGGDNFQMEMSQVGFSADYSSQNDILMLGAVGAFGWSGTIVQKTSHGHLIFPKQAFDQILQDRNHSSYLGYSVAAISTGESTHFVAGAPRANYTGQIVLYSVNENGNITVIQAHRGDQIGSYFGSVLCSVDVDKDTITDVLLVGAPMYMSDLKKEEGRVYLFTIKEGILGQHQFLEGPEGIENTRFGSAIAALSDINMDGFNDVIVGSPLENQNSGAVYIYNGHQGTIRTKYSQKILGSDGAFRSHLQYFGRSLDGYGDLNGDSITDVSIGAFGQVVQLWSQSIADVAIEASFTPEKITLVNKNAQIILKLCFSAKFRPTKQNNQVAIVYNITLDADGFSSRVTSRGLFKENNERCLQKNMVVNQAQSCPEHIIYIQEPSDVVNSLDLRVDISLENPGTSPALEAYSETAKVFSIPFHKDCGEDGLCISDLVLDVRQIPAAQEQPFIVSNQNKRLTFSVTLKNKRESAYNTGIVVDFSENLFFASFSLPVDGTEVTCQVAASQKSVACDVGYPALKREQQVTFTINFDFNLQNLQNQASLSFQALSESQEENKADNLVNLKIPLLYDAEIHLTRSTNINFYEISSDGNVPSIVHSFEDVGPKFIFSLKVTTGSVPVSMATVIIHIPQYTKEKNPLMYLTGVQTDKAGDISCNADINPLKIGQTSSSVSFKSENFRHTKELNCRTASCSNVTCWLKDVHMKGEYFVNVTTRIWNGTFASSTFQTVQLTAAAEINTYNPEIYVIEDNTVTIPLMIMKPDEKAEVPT
T1 sequence (P05556 21-728, chain 2 of 2): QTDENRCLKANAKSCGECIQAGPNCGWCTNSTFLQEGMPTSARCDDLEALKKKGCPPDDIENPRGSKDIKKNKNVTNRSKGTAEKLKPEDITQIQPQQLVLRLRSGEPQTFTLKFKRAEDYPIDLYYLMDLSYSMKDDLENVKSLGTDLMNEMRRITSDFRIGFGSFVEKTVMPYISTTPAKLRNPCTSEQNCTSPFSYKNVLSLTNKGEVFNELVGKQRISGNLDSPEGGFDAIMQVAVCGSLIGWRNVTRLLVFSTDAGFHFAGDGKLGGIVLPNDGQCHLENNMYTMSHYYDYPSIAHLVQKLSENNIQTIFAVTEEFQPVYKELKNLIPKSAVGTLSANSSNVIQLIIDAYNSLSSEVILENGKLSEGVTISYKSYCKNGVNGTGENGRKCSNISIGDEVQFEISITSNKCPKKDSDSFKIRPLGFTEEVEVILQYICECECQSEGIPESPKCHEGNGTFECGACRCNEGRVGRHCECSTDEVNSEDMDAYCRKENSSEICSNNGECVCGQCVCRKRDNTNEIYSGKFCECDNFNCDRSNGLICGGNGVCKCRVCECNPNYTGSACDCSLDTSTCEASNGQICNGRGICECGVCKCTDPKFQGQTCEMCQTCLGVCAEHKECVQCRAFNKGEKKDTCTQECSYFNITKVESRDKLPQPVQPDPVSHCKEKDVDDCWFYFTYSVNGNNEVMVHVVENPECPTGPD
α2β1 integrin (UniProt P17301), sequence (P17301 30-1132, chain 1 of 2): as the sequence (P17301 30-1132, chain 1 of 2) above
α2β1 integrin (UniProt P17301), sequence (P05556 21-728, chain 2 of 2, further chain): as the sequence (P05556 21-728, chain 2 of 2) above

Regarding “reovirus strain T3SA- virion (from UniProt P03528 1-455; P11077 1-708; P07939 1-365) (complex)”, in the assay with α2β1 integrin [1], the BF (binding frequency) came to 7%, the Kd was 103 nM, the dissociation rate constant (koff) is 0.58 s⁻¹ and the kon is 5.62e+06 M⁻¹ s⁻¹.
Turning to “reovirus strain T3SA+ virion (from UniProt P03528 1-455; P11077 1-708; P07939 1-365) (complex)”, the Kd came to 85 nM with α2β1 integrin [2]; 10 nM in the assay with α2β1 integrin [3]; 116 nM with α2β1 integrin [4]; 548 nM in the assay with α2β1 integrin [6]; 2 nM with α2β1 integrin [10]; 68 nM with α2β1 integrin [1]. Further, the BF (binding frequency) with Neu5Ac with α2β1 integrin [4] amounted to 6%. Also, the koff was found to be 0.57 s⁻¹ with α2β1 integrin [4], 2.1 s⁻¹ with α2β1 integrin [6] and 0.4 s⁻¹ with α2β1 integrin [1]. Moreover, the kon in the assay with α2β1 integrin [4] worked out at 4.92e+06 M⁻¹ s⁻¹; with α2β1 integrin [6], 3.83e+06 M⁻¹ s⁻¹; with α2β1 integrin [1], 5.83e+06 M⁻¹ s⁻¹. Further, the BF (binding frequency) with α2β1 integrin [5] was determined as 1%; with α2β1 integrin [6], 8%; in [7], 3%; in assay [8] it was 6%; in assay [9], 1%; with α2β1 integrin [1], 19%.
In the assay with α2β1 integrin [1], “T3SA+ infectious subvirion particle (ISVP) (from UniProt P03528 1-455; P11077 1-708) (complex)” yielded a BF (binding frequency) of 4%, a Kd of 105 nM, a koff of 0.59 s⁻¹ and a kon of 5.62e+06 M⁻¹ s⁻¹.

B1: T3SA+ core (complex)
chain: MANVWGVRLADSLSSPTIETRTRHYTLRDFCSDLDAVAGKEPWRPLRNQRTNDIVAVQLFRPLQGLVLDTQFYGFPGIFSEWEQFIKEKLRVLKYEVLRIYPISNYNHERVNVFVANALVGAFLSNQAFYDLLPLLVINDTMINDLLGTGAALSQFFQSHGEVLEVAAGRKYLQMKNYSNDDDDPPLFAKDLSDYAKAFYSDTFETLDRFFWTHDSSAGVLVHYDKPTNGNHYILGTLTQMVSAPPHIINATDALLLESCLEQFAANVRARPAQPVARLDQCYHLRWGAQYVGEDSLTYRLGVLSLLATNGYQLARPIPKQLTNRWLSSFVSQVMSDGVNETPLWPQERYVQIAYDSPSVVDGATHYGYVRRNQLRLGMRVSALQSLSDTPAPIQWLPQYTIEQAAVDEGDLMVSRLTQLPLRPDYGSIWVGDALSYYVDYNRSHRVVLSSELPQLPDTYFDGDEQYGRSLFSLARKIGDRSLIKDTAVLKHAYQAIDPNTGKEYLRAGQSVAYFGASAGHSGADQPLVIEPWTQGKISGVPPPSSVRQFGYDVAKGAIVDLARPFPSGDYQFVYSDVDQVVDGHDDLSISSGLVESLLDSCMHATSPGGSFVMKINFPTRTVWHYIEQKILPNITSYMLIKPFVTNNVELFFVAFGVHQQSALTWTSGVYFFLVDHFYRYETLSTISRQLPSFGYVDDGSSVTGIEMISLENPGFSNMTQAARVGISGLCANVGNARKLISIHESHGARVLTITSRRSPASARRKARLRYLPLVDPRSLEVQARTILPSNPVLFDNVNGASPHVCLTMMYNFEVSSAVYDGDVVLDLGTGPEAKILELIPPTSPVTCVDIRPTAQPSGCWNVRTTFLELDYLSDGWITGIRGDIVTCMLSLGAAAAGKSMTFDAAFQQLVKVLTKSTANVLLIQVNCPTDVIRTIKGYLEIDQTNKRYRFPKFGRDEPYSDMDSLERICRAAWPNCSITWVPLSYDLRWTKLALLESTTLSSASVRIAELMYKYMPVMRIDIHGLPMEKQGNFIVGQNCSLTIPGFNAQDVFNCYFNSALAFSTEDVNSAMIPQVTAQFDANKGEWSLDMVFSDAGIYTMQALVGSNANPVSLGSFVVDSPDVDITDAWPAQLDFTIAGTDVDITVNPYYRLMAFVRIDGQWQIANPDKFQFFSSSTGTLVMNVKLDIADRYLLYYIRDVQSRDVGFYIQHPLQLLNTITLPTNEDLFLSAPDMREWAVKESGNTICILNSQGFVPPQDWDVLTDTISWSPSLPTYVVPPGDYTLTPL
For B1, in the assay with α2β1 integrin [11], binding was put at a Kd of 741 ± 317 nM, the koff came out at 1.52 ± 0.4 s⁻¹ and the kon stood at 2.05e+06 ± 300000 M⁻¹ s⁻¹.

As usually defined, the Kd is the constant that tells how readily two partners part at equilibrium. In general, koff refers to the first-order rate constant of dissociation. As a reminder, the kon is the rate constant with which the complex forms. A higher kon goes with faster complex formation.
